# Source: patent US10059928B2, “Polymerases” (Illumina Cambridge Limited, priority 2005, dated 2018)
# Residue numbers refer to the chain shown, from its start. In names and notes the source's numbering stands.
# B1: wild-type 9°N-7 polymerase: Wild-type family B DNA polymerase from Thermococcus sp. 9°N-7 (protein, UniProt Q56366 1-775, looked up)
# DNA polymerase: MILDTDYITENGKPVIRVFKKENGEFKIEYDRTFEPYFYALLKDDSAIEDVKKVTAKRHGTVVKVKRAEKVQKKFLGRPIEVWKLYFNHPQDVPAIRDRIRAHPAVVDIYEYDIPFAKRYLIDKGLIPMEGDEELTMLAFDIETLYHEGEEFGTGPILMISYADGSEARVITWKKIDLPYVDVVSTEKEMIKRFLRVVREKDPDVLITYNGDNFDFAYLKKRCEELGIKFTLGRDGSEPKIQRMGDRFAVEVKGRIHFDLYPVIRRTINLPTYTLEAVYEAVFGKPKEKVYAEEIAQAWESGEGLERVARYSMEDAKVTYELGREFFPMEAQLSRLIGQSLWDVSRSSTGNLVEWFLLRKAYKRNELAPNKPDERELARRRGGYAGGYVKEPERGLWDNIVYLDFRSLYPSIIITHNVSPDTLNREGCKEYDVAPEVGHKFCKDFPGFIPSLLGDLLEERQKIKRKMKATVDPLEKKLLDYRQRAIKILANSFYGYYGYAKARWYCKECAESVTAWGREYIEMVIRELEEKFGFKVLYADTDGLHATIPGADAETVKKKAKEFLKYINPKLPGLLELEYEGFYVRGFFVTKKKYAVIDEEGKITTRGLEIVRRDWSEIAKETQARVLEAILKHGDVEEAVRIVKEVTEKLSKYEVPPEKLVIHEQITRDLRDYKATGPHVAVAKRLAARGVKIRPGTVISYIVLKGSGRIGDRAIPADEFDPTKHRYDAEYYIENQVLPAVERILKAFGYRKEDLRYQKTKQVGLGAWLKVKGKK
# B2: R743A: 9°N-7 YAV C223S exo- polymerase with alanine substitution at Arg743 in the thumb subdomain (protein)
# chain: B1 DNA polymerase with D141S, E143S, C223S, L408Y, Y409A, P410V, A485L, R743A
# modifications: Codon optimised thumb mutant polymerase
# notes: 9°N-7 YAV C223S exo- polymerase with alanine substitution at Arg743 in the thumb subdomain
# How the values were obtained:
# DNA = details: wild-type enzyme; Southworth et al. 1996; read-out: Kd (affinity for DNA); cited from earlier work
# [1] = system: surface-coupled A-template hairpin (oligo 815); assay: NUNC tube assay using crude protein preparation: incorporation of ffTTP into surface-coupled hairpin; assay type: biochemical; details: crude enzyme, 5 μM ffT-N3-647, 45° C., 30 minutes; samples not normalised for concentration
# Description: Small 5 ml cultures of the mutant enzymes (along with a culture of YAV C223S exo- for direct comparison) were taken through a quick purification as outlined in WO 2005/024010 up until the heat treatment step. At this point, the samples were considered to be sufficiently pure to test their activity.
# The buffers for each of the crude preparations were exchanged into enzymology buffer (50 mM Tris pH 8.0, 6 mM MgSO4, 1 mM EDPA, 0.05% Tween20) using an S300 gel filtration spin-column. The samples were not normalised for concentration. The test employed was a simple incorporation of ffTTP into surface-coupled A-template hairpin. 2 pmoles of 5′-amino oligo 815 (5′-[…] […]-3′) (SEQ ID NO: 17) was coupled to a NUNC-nucleolink strip according to the manufacturers protocol.
# Once washed, each well was incubated with a 20 µl aliquot of a crude enzyme preparation (identity of enzyme listed below) and 5 µM ffT-N3-647. The strip was then incubated at 45° C. for 30 minutes. The experiment was performed in duplicate. Upon completion of the 30 minute incubation, wells were washed with 3×100 µl of high salt wash buffer (10 mM Tris pH 8.0, 1M NaCl, 10 mM EDTA) and then 3×100 µl of MilliQ water. Strips were scanned on a typhoon fluorescence imager CY5 filter, PMT=450 V).
# The fluorescence density is proportional to the amount of ffTTP incorporation—the darker the well, the greater the level of incorporation. […]
# 10A hairpin DNA [2] = assay: Single base incorporation assay, crude enzyme preparations (normalised concentrations); assay type: biochemical; details: first base incorporation of ffTTP
# Description: The activity of the crude enzyme preparations (normalised concentrations) was measured using the single base incorporation assay as described in WO 2005/024010. 10 minute incubations were run with either 30 or 3 μg/ml crude enzyme preparation in the presence of 2 μM ffT-N3-cy3 and 20 nM 10A hairpin DNA (^32P-labelled), aliquots of the reaction mixture were withdrawn at 0, 30, 60, 180 and 600 s and run on a 12% acrylamide gel.
# The band intensities were quantified using Imagequant and the fluorescence intensity plotted versus incubation time to generate the time-courses shown in FIG. 4.
# 10A hairpin DNA [3] = assay: Single base incorporation assay for purified polymerases where [DNA] is greater than [pol]; assay type: biochemical; details: 4 nM purified enzyme, 2 μM ffT-N3-cy3
# Description: The activity of the purified enzyme preparations of Clone 9 polymerase (YAV C223S exo-) and the thumb sub-domain mutants K705A, R713A and R743A was measured using the single base incorporation assay as described in WO 2005/024010. The experiment was carried out such that the respective concentrations of DNA and polymerase were at a ratio of approximately 5:1. Thus, the ability of the enzyme to incorporate nucleotides into multiple DNA template molecules in a single reaction cycle was investigated. 30 minute incubations were run with 4 nM purified enzyme in the presence of 20 nM 10A hairpin DNA (^32P-labelled) and 2 μM ffT-N3-cy3, aliquots of the reaction mixture were withdrawn at 0, 15, 30, 60, 180, 480, 900 and 1800 s intervals and run on a 12% acrylamide gel.
# The band intensities were quantified using Imagequant and the fluorescence intensity, converted into percentage completion (based on the relative intensities of the starting material and final product bands on the gel) plotted versus incubation time to generate the timecourses shown in FIG. 5.
# [4] = system: ffT-N3-cy3 incorporation into A template hairpin oligo 815; assay: Incorporation kinetics of ffT-N3-cy3 (NUNC tube assay, Michaelis plots); assay type: biochemical; details: 45° C., [DNA]<<[pol] or [ffNTP]
# Description: The kinetic characterization of the enzymes was conducted using NUNC tube assay and involved the measurement of rate constants for the first order incorporation of ffT N3 cy3 where [DNA]<<[pol] or [ffNTP], at a variety of [ffTTP]. Below is described the methodology used for each of the three polymerases tested.
# Six (1×8) NUNC nucleolink strips were functionalized with 2 pmoles of 5′-amino A template hairpin oligo 815 (5′ H2N-[…] ATGCACATCAGCG-3′) (SEQ ID NO: 18), according to the manufacturer's protocol.
# Each strip was employed for a time-course experiment at a particular (ffT-N3-cy3). […]
# Time-courses were initiated by addition of a 20 μl aliquot of 2× enzymology mix (X μM ffT-N3-cy3, 1.1 μM polymerase in enzymology buffer) pre-equilibrated at 45° C. for 2 minutes using an 8-channel multipipette in order to start reactions in individual wells at identical time-points. […] After reactions in all 8 wells stopped, strips were washed with […] high salt wash (10 mM Tris pH 8.0, 1 M NaCl, 10 mM EDTA) and then […] MilliQ water and then scanned on a Typhoon fluorescence imager (Cy3 filter, PMT=500 V). Fluorescence intensities in each well were quantified using Imagequant. Plotting the variation in Cy3 fluorescence intensity vs. time generates time-course graphs. […]
activity relative to YAV (in words) (10A hairpin DNA [2]),Molecule,Kd (DNA),improvement in level of incorporation over clone 9 [1],"amplitude of the burst (exponential) phase, percentage completion (10A hairpin DNA [3]; 20 nM 10A hairpin DNA (ratio 5:1))","observed rate constant kobs for the burst phase (10A hairpin DNA [3]; crude fitting of timecourses, 20 nM 10A hairpin DNA)",kpol [4]
–,B1,0.05 nM,–,–,–,–
comparable activities to YAV,B2,–,~45%,~90%,~0.004 s⁻¹,0.068 s⁻¹
